31 sequences from the supplement of paper PMC12764529 can be followed below.

± gives the half width of the 95% confidence interval.

Data set [1] can be described thus: folding stability dG unfold (combined trypsin and chymotrypsin); higher = more stable. The gist of the method:
(§1)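 Sequencing followed digestion of designed mini-proteins with trypsin and chymotrypsin, each at 11 concentrations in threefold dilutions together with a no-protease condition. The mini-proteins were under 80 residues, had no cysteine, sat in a PA-tagged cDNA display construct, and were kept only if AlphaFold2 dimer inter-PAE was above 15. From the counts, Bayesian fitting gave K50, and unfolding free energy was derived against a sequence-predicted unfolded-state K50 and a shared folded-state K50, per protease or combined.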

The nature of data set [2]: folding stability dG unfold from chymotrypsin proteolysis; higher = more stable. In outline: as §1
Data set [3] in a line: folding stability dG unfold from trypsin proteolysis; higher = more stable. In outline: as §1

On to “SSITETKEFLLESEEEVEAIAEELKKPGVEVEVEVKEVERVDKKTGKKKKALKATITVKIPLPPPEKGKLSA [r9_962_JUSTAS]”, for which the “folding stability dG unfold” value amounted to 0.794 ± 0.15 kcal/mol in data set [1], 0.742 ± 0.069 kcal/mol in data set [2] and 0.79 ± 0.054 kcal/mol in data set [3].

“SSLGPGELEVTELETTEEELPDGTTLKRTLSREIVPDPAGAGRVVLTETLSTVPPDGSETVTTLSVTVLASA [r9_838_JUSTAS]”: the “folding stability dG unfold” value in data set [1] is -0.138 ± 0.16 kcal/mol; in data set [2], -0.0934 ± 0.17 kcal/mol; in data set [3], -0.078 ± 0.13 kcal/mol.

Take “SSMPLEEIVERVAEELGIPEEELERIESVDPGVVDPSPEGPTRVELRITLRDPHSDTTTEYRVEVEDPGGSA [r9_230_JUSTAS]”: the “folding stability dG unfold” value in data set [1] was -0.501 ± 0.29 kcal/mol; in data set [2] it was -0.503 ± 0.46 kcal/mol; in data set [3], -0.784 ± 0.3 kcal/mol.

For the sequence “SSMSIEIKEVEEDPVGSEAKPRVVREKVTLEGTEVELTVTVTEAPSGETTVTTTLTFPGSGKTFSFTFDTSA [r9_241_JUSTAS]”, the results for the “folding stability dG unfold” value in data set [1], in data set [2] and in data set [3] were 2.62 ± 0.058 kcal/mol, 3.05 ± 0.044 kcal/mol and 1.9 ± 0.052 kcal/mol, respectively.

“SSMSMKTITIDATFTSEEEAKKYAEEIKKKIPPENIKNISISSTPELVTGDGTYKGEKIKVTITIEIVKKSA [r9_605_JUSTAS]”: the “folding stability dG unfold” value in data set [1] was determined as 1.71 ± 0.26 kcal/mol; in data set [2], 1.74 ± 0.2 kcal/mol; in data set [3] it was 1.64 ± 0.17 kcal/mol.

In the case of “SSPALDEKYTAKVDAKVTSPEGKPLATFTIDVLTEEEAKKKIEEFVKELAEKLGRPDLPVTISNITIERVSA [r9_376_JUSTAS]”, the “folding stability dG unfold” value stood at 0.679 ± 0.25 kcal/mol in data set [1], 0.921 ± 0.16 kcal/mol in data set [2] and 0.519 ± 0.077 kcal/mol in data set [3].

As to “SSPANITTTTTSSPLNLETFDPKTGKKKRINYTLTTETVTFPGGEVVTTTVLKDASTGKVTTLSTTVTPTSA [r9_402_JUSTAS]”, the entries for the “folding stability dG unfold” value in data set [1], in data set [2] and in data set [3] were 1.08 ± 0.12 kcal/mol, 1.22 ± 0.14 kcal/mol and 0.773 ± 0.081 kcal/mol, respectively.

Turning to “SSPEEMAEKLAKELNFDKIEIKTEKLDLPSGPSEATVATAKLYNPATGKEYVVKILKFPDGSYEIVIEKKSA [r9_724_JUSTAS]”, the results for the “folding stability dG unfold” value in data set [1], in data set [2] and in data set [3] were 2.28 ± 0.07 kcal/mol, 2.627 ± 0.015 kcal/mol and 1.44 ± 0.042 kcal/mol, respectively.

On to “SSPLINILTVEVTAETPSGGSFSKTFTFPASKYTEEEIREKIKEEYPDLTDIKITPKVTKIPPGPKILLASA [r9_841_JUSTAS]”, for which the entries for the “folding stability dG unfold” value in data set [1], in data set [2] and in data set [3] were 1.76 ± 0.18 kcal/mol, 1.98 ± 0.18 kcal/mol and 1.29 ± 0.07 kcal/mol, respectively.

Consider “SSSLDYVFKDIDPSSPNKLTLSEIKPVPESDKVVNKIVFPTKTILVTFDSAEDAEAHIGLLLKLFGSPPESA [r9_258_TrMRF]”, for which the “folding stability dG unfold” value in data set [1] stood at 0.852 ± 0.1 kcal/mol; in data set [2], 0.924 ± 0.12 kcal/mol; in data set [3], 0.66 ± 0.044 kcal/mol.

In the case of “SSSSEVKVERYPDSYLVTITIREGDKEVGTLSYPLNGSLTVEEVLEEVQKRYPDLPVSFSTSVPVPPPAPSA [r9_364_JUSTAS]”, the “folding stability dG unfold” value amounted to 3.8 ± 0.13 kcal/mol in data set [1], 3.88 ± 0.073 kcal/mol in data set [2] and 3.46 ± 0.11 kcal/mol in data set [3].

Regarding “SSSSMKTITLEKKITSPEEAEALREELLKKGYEVEVKVYPHPDSYIAKITVTIEVPPPPLSPTNPSALLKSA [r9_863_JUSTAS]”, the “folding stability dG unfold” value turned out to be 0.967 ± 0.22 kcal/mol in data set [1], 0.913 ± 0.2 kcal/mol in data set [2] and 1.19 ± 0.061 kcal/mol in data set [3].

For the sequence “SSSSSRTIEYPDSTLELTFTTTPLPDDTYRVPVQVTRYDPVTKTWSTRNLTVPFPPSDPEAAAEAVIARLLS [r1_171_JUSTAS]”, the “folding stability dG unfold” value turned out to be 0.355 ± 0.092 kcal/mol in data set [1], 0.39 ± 0.11 kcal/mol in data set [2] and 0.11 ± 0.1 kcal/mol in data set [3].

In the case of “SSSVSVTRTRDPRTGRLVVTVSMNYEDDPEEAVEAAKALLEAAGLDVAEVLSITVDPSTGTVTIPIAVAPSA [r9_876_JUSTAS]”, the “folding stability dG unfold” value in data set [1] was found to be 3.05 ± 0.064 kcal/mol; in data set [2], 3.15 ± 0.076 kcal/mol; in data set [3], 2.79 ± 0.062 kcal/mol.

For “SSVPADAAPVTVTETVTVTLPVDTATGGVPEERVAAAREAAAARGFTEFTVTTDPAAGTVTVTVTRTSRVSA [r9_201_JUSTAS]”, the “folding stability dG unfold” value in data set [1] is 1.11 ± 0.054 kcal/mol; in data set [2], 1.27 ± 0.035 kcal/mol; in data set [3] it was 0.77 ± 0.055 kcal/mol.

For the sequence “SSYTVLEEKVESDPNKDSLTYLTLKTPDGRELTVTEPVKKVDDSWITNSTLTDPVGGRTTTSTTTVKLSGSA [r9_269_JUSTAS]”, the “folding stability dG unfold” value in data set [1] is -0.487 ± 0.13 kcal/mol; in data set [2], -0.409 ± 0.17 kcal/mol; in data set [3], -0.977 ± 0.29 kcal/mol.

In the case of “STIMIMFRSPEDLEKFLNEAKEMIRNGKNVPITIMAHGPNGRYWMFTIDIKMDPDGNPKIEIEWEPVPPDSA [r9_1023_TrROS]”, the “folding stability dG unfold” value came out at 3.89 ± 0.099 kcal/mol in data set [1], 4.24 ± 0.043 kcal/mol in data set [2] and 3.23 ± 0.1 kcal/mol in data set [3].

“STSTTITYPTLTISVEESVLPDGTPRYTVTLHLPEKGVSIPVEVDSAAEAEEAVREAIRKLLPDETVEEESA [r9_749_JUSTAS]”: the “folding stability dG unfold” value in data set [1] stood at 2.23 ± 0.2 kcal/mol; in data set [2], 2.24 ± 0.16 kcal/mol; in data set [3], 2.24 ± 0.12 kcal/mol.

For the sequence “SVIIYMPWDNIPNMLRQLKALAKNGQKPVTIYMPVPEDWRRELREWLDDYGITVEPHPDNDWYKIEIEPKSA [r9_600_TrROS]”, the figures for the “folding stability dG unfold” value in data set [1], in data set [2] and in data set [3] were 3.09 ± 0.077 kcal/mol, 3.318 ± 0.0095 kcal/mol and 2.54 ± 0.069 kcal/mol, respectively.

Regarding “SVIKLPIWYPNSPAEQAEEMVQSLARKFMDKYGLKIDVEVETRRDPDGKPRWVRIEATIQYRDEDGKPIFSA [r9_21_TrROS]”, the “folding stability dG unfold” value in data set [1] was found to be 2.07 ± 0.26 kcal/mol; in data set [2], 2 ± 0.073 kcal/mol; in data set [3], 1.81 ± 0.084 kcal/mol.

As to “SVPVAPDKTYEIENIEEGNYLIKGLTLTPLPDGSVKIDKDIEPIEIPPKPPPLKYDPVKGGFIKPNDPLLSA [r9_603_JUSTAS]”, the “folding stability dG unfold” value turned out to be 0.434 ± 0.14 kcal/mol in data set [1], 0.592 ± 0.19 kcal/mol in data set [2] and 0.319 ± 0.08 kcal/mol in data set [3].

In the case of “SWKIKISIERTGDWITVKIWYDNPSELRNAIEMIAEKLGMKVEIDDVSWKRDPNGWYEATITVRIKPGMPSA [r9_102_TrROS]”, the “folding stability dG unfold” value stood at 3.42 ± 0.16 kcal/mol in data set [1], 3.31 ± 0.077 kcal/mol in data set [2] and 3.27 ± 0.18 kcal/mol in data set [3].

Consider “SWQIKEVFPLPNGMRIKVYIHPDGYVQVSIRMYRPNPNDGKPQRQRFSITVPLPPGKPPSIDDILDYILNSA [r9_614_TrROS]”, for which the “folding stability dG unfold” value in data set [1] stood at 2.44 ± 0.22 kcal/mol; in data set [2] it was 2.24 ± 0.21 kcal/mol; in data set [3], 2.36 ± 0.051 kcal/mol.

Regarding “SWTFPILIRFPFDDPEDLDKAREMAEDLVRYLAEEFGWPVKIDKVKYERNPENGWVWIRAEITVTPPDDVSA [r9_105_TrROS]”, the “folding stability dG unfold” value is 4.9 ± 0.11 kcal/mol in data set [1], 5.31 ± 0.098 kcal/mol in data set [2] and 3.62 ± 0.08 kcal/mol in data set [3].

As to “SWWYIVTIKIWKPGNGEPKGPIMLFVRSPEEAEEIAEEPAPEHGYDVEVNVKRIPPDDMDDPEQMKEMMNSA [r9_864_TrROS]”, the “folding stability dG unfold” value in data set [1] was found to be 2.07 ± 0.37 kcal/mol; in data set [2] it was 2.56 ± 0.13 kcal/mol; in data set [3], 1.82 ± 0.035 kcal/mol.

For “SWWYMVKIEIENGGKPIKIPVPVNDLDDFIDNAREAIPPDLADQLPPNMEVEVEVMPIPRVDPENGKPRPSA [r9_111_TrROS]”, the entries for the “folding stability dG unfold” value in data set [1], in data set [2] and in data set [3] were 1.1 ± 0.15 kcal/mol, 1.42 ± 0.15 kcal/mol and 0.866 ± 0.054 kcal/mol, respectively.

Turning to “SWYIIRIEIKIRNPKDGKSFDIEIMIHAPVEEAKEIAKEIASMFPGMRVEVKITEVMPMPPMTPEQLEKMSA [r9_421_TrROS]”, the results for the “folding stability dG unfold” value in data set [1], in data set [2] and in data set [3] were 3.25 ± 0.076 kcal/mol, 3.721 ± 0.027 kcal/mol and 2.23 ± 0.081 kcal/mol, respectively.

For the sequence “SYLPESVPYDLVELTVVAKGKSPEYLEKKIKEAFKDVKIEPFYDPEKKLVTFKIVFPNKETAEKFKELVSSA [r9_764_TrMRF]”, the figures for the “folding stability dG unfold” value in data set [1], in data set [2] and in data set [3] were 2.16 ± 0.07 kcal/mol, 2.28 ± 0.041 kcal/mol and 1.93 ± 0.054 kcal/mol, respectively.

Regarding “TPLTTSTTTVPPSEIATPVTFNAPLSPDTSVTITTYDSATGTTSPVFSTTSASVTLTDLPNVSTATVVVVSS [r1_224_JUSTAS]”, the “folding stability dG unfold” value in data set [1] is 0.459 ± 0.068 kcal/mol; in data set [2], -0.255 ± 0.23 kcal/mol; in data set [3] it was 0.702 ± 0.018 kcal/mol.

“TTKTYTTPVIKKMTVTFDKTEGNEATLTITATLPDGTPVTLPFPLTLETGKLDPAVVEAAIKAAVATAIAQS [r1_124_JUSTAS]”: the entries for the “folding stability dG unfold” value in data set [1], in data set [2] and in data set [3] were 1.23 ± 0.2 kcal/mol, 1.37 ± 0.12 kcal/mol and 0.892 ± 0.07 kcal/mol, respectively.

Consider “WRIRVEIEMYNPDGDPMEMEIQIPVDKLQELRQEGEPFTKEELVDEIVEIIRDMMPEHGMPIEIKIVEIVPS [r1_174_TrROS]”, for which the “folding stability dG unfold” value is 1.76 ± 0.2 kcal/mol in data set [1], 1.76 ± 0.074 kcal/mol in data set [2] and 1.64 ± 0.051 kcal/mol in data set [3].
